# Laboratory results: PMC483052 (Journal of Neuroinflammation, 2004)
# B1: serine racemase (enzyme, rat (endogenous in primary microglia), UniProt Q76EQ0 1-333, looked up)
# chain: MCAQYCISFADVEKAHLNIQDSVHLTPVLTSSILNQIAGRNLFFKCELFQKTGSFKIRGALNAIRGLIPDTLEGKPKAVVTHSSGNHGQALTYAAKLEGIPAYIVVPQTAPNCKKLAIQAYGASIVYSEPSDESRENVAQRIIQETEGILVHPNQEPAVIAGQGTIALEVLNQVPLVDALVVPVGGGGMVAGIAITIKTLKPSVKVYAAEPSNADDCYQSKLKGELTPNLHPPETIADGVKSSIGLNTWPIIRDLVDDVFTVTEDEIKYATQLVWERMKLLIEPTAGVGLAAVLSQHFQTVSPEVKNICIVLSGGNVDLTSLSWVKQAERPAP
# Target: the molecule itself
# Experiment: western blot of cell lysates
protein,measurement,value
B1,stoichiometry N,2
